Test results reported in US20180258174A1 (INSITUT NATIONAL DE LA SANTE ET DE LA RECHERCHE MEDICALE …, published 2018).

Biological target: RLIQ108D/CD122 complex (RLIQ108D bound to immobilized CD122) (human, UniProt P14784 27-240, limits assumed)
Test: SPR, sequential binding on immobilized CD122
Procedure: The SPR experiments were performed with a BIAcore 3000 biosensor (BIAcore, Uppsala, Sweden). Recombinant proteins (hCD122, hCD132, Fc-IL-15Rα) were covalently linked to CM5 sensor chips, and the binding of increasing concentrations of ligands (IL-15, IL-15Q108D, RLI, RLIQ108D, RLIN65K) was monitored. Analysis of sensorgrams was performed using BIAlogue kinetics evaluation software.
In order to inhibit IL-2 and IL-15 dependent effector functions, we developed an original approach targeting the CD122/CD132 dimer, by combining an increased affinity for CD122 and an impaired recruitment of CD132. […] We have thus generated RLIQ108D, a fusion molecule between IL-15Q108D mutein covalently linked to the soluble IL-15Rα sushi domain. As a control, RLIN65K was produced in which CD122 recruitment was abrogated by introducing the N65K mutation in the IL-15 moiety. […] By contrast, RLIN65K was unable to bind CD122 (FIG. 11C). Furthermore, soluble CD132 binding to RLI/CD122 complex was completely abrogated when introducing in RLI the Q108D substitution (RLIQ108D) (FIG. 11E). […] As a control, the binding of the non-blocking CF-1 anti-CD122 mAb was unaffected by either RLIQ108D or RLIN65K (FIG. 12A).

Sequence of RLIQ108D/CD122 complex (RLIQ108D bound to immobilized CD122) (chain, as listed by the source limits assumed, chain 1 of 2): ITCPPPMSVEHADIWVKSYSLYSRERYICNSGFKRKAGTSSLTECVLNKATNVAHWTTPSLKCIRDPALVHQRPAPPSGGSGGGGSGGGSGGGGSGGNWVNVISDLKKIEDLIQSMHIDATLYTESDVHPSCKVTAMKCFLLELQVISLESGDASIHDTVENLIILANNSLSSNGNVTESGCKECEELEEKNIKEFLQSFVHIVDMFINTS
Sequence of RLIQ108D/CD122 complex (RLIQ108D bound to immobilized CD122) (P14784 27-240 limits assumed, chain 2 of 2): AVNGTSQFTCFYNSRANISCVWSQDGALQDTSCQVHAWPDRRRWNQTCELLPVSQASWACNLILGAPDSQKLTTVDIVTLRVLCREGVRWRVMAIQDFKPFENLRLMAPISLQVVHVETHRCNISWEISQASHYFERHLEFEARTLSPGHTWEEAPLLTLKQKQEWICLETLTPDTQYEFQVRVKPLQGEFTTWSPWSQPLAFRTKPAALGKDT

- binding result: no binding
B1: hCD132 (recombinant, soluble CD132 chain) (receptor, human, UniProt P31785 23-262, looked up)
chain: LNTTILTPNGNEDTTADFFLTTMPTDSLSVSTLPLPEVQCFVFNVEYMNCTWNSSSEPQPTNLTLHYWYKNSDNDKVQKCSHYLFSEEITSGCQLQKKEIHLYQTFVVQLQDPREPRRQATQMLKLQNLVIPWAPENLTLHKLSESQLELNWNNRFLNHCLEHLVQYRTDWDHSWTEQSVDYRHKFSLPSVDGQKRYTFRVRSRFNPLCGSAQHWSEWSHPIHWGSNTSKENPFLFALEA
